Source: patent publication US20170319711A1

Columns and labels:
[1] = target: Human 5T4 antigen on cells (human) (UniProt Q13641); assay: flow cytometry, A431 cells
[2] = target: Human 5T4 antigen on cells (human) (UniProt Q13641); assay: flow cytometry, PC3mm2 cells
[3] = target: Human 5T4 antigen on cells (human) (UniProt Q13641); assay: flow cytometry, MDAMB468 cells

Measured: Mean Fluorescent Intensity

Human 5T4 antigen on cells (human), sequence (Q13641 32-420 limits assumed): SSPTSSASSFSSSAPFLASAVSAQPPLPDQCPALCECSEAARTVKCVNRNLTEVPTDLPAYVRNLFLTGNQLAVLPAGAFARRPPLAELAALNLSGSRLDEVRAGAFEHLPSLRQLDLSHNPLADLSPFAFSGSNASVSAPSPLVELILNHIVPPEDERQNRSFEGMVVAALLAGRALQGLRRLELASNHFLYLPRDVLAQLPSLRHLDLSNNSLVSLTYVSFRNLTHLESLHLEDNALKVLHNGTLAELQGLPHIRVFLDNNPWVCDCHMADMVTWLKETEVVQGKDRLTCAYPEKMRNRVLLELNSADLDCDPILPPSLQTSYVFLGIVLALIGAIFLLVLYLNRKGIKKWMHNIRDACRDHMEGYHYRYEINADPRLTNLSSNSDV

IgG control (antibody)
< 100: all assays above
